{"source": "patent US20260263563A1", "about": "“Method of Treatment of a Thoracolumbar Deformity in a Human Subject with Achondroplasia” (Ascendis Pharma Growth Disorders A/S, priority 2023, published 2026)", "key": {"[1]": {"system": "binding antibodies against CNP-38 (and CNP-22)", "experimental": "All subjects in the trial are being monitored for binding and, if relevant, neutralizing antibodies to CNP. […] Samples are collected in all subjects at screening visit, prior to initial dose, and post-dose at 1, 3, 6, 9 months+every 3 months for the duration of the study. Samples are analyzed using a fully validated anti-CNP antibody assay.\nPrior to analysis of clinical samples, the assay was fully validated following regulatory requirements from both EMAA and FDA. In this approach, biotinylated and ruthenylated CNP-38 were prepared as a master mix. Samples were incubated at minimum required dilution (MRD) in the master mix to form complex and then plated on an MSD streptavidin plate where the biotinylated CNP-38 could also bind. The samples were then detected by the ruthenium labelled CNP-38 within the bound complexes, using an MSD 5600 plate reader. The presence of anti-drug antibody present was determined by comparing the signal to a statistically derived threshold, the assay cut point."}, "[2]": {"experimental": "A population PK model was used to characterize the sparse PK data.\nBlood samples for determination of CNP-38 were acidified immediately after collection, using citrate acid buffer, to stabilize the prodrug in the sample thereby avoiding further liberation of CNP-38 from the prodrug. CNP-38 was determined in plasma (heparin) following protein precipitation and solid phase extraction and analyzed using liquid chromatography and tandem mass spectrometry detection. CNP-38 (38 amino acid peptide) was used as reference material and CNP-38 labelled with deuterium (D30-CNP-38) as internal standard (IS). Positive ions were monitored in multiple-reaction monitoring mode. The quantification was performed using the peak area ratios of analyte versus IS. The calibration curve fitting was done by 1/concentration-weighted linear regression.\nDuring the trial, sparse blood samples were collected at different time points in the dosing interval, and the concentration of free CNP-38 was determined using the methodology described in example 6.\nThe values are provided as pmol/L CNP-38. […] The lower value in the range is the lowest free CNP-38 concentration, also referred to as the trough level or trough concentration. The number of subjects contributing with observations at the specified time interval are: 4, 8, 10 and 6 for the 6, 20, 50 and 100 μg/kg dose groups, respectively."}}, "note": "Like-named read-outs stand apart in the source and are kept apart here."}
{"substance": "Navepegritide [Compound (1)]", "values": [{"measurement": "anti-CNP binding antibodies", "setting": "[1]; 1 to 9 months of repeated weekly exposure", "value": "No anti-CNP binding antibodies have been detected"}, {"measurement": "treatment emergent anti-CNP antibodies", "setting": "[1]; 57 patients followed for up to 65 weeks", "value": "no treatment emergent anti-CNP antibodies were detected"}, {"measurement": "post-dose samples, anti-CNP antibodies", "setting": "[1]; samples at 1, 3, 6, 9 months + every 3 months", "value": "confirmed negative"}, {"measurement": "Estimated half-life for free CNP", "setting": "[2]; 6 μg/kg/week", "value": 101, "unit": "h"}, {"measurement": "Free CNP-38, Mean (SD)", "setting": "[2]; 6 μg/kg/week, 6.5 to 7.5 days after last dose", "value": "1.7 (0.2) pmol/L"}, {"measurement": "Free CNP-38, Median (range)", "setting": "[2]; 6 μg/kg/week, samples 6.5 to 7.5 days after last dose (trough), 4 subjects", "value": "1.7 (1.4-1.9) pmol/L"}, {"measurement": "Estimated half-life for free CNP", "setting": "[2]; 20 μg/kg/week", "value": 106, "unit": "h"}, {"measurement": "Free CNP-38, Mean (SD)", "setting": "[2]; 20 μg/kg/week, 6.5 to 7.5 days after last dose", "value": "2.9 (9.7) pmol/L"}, {"measurement": "Free CNP-38, Median (range)", "setting": "[2]; 20 μg/kg/week, 6.5 to 7.5 days after last dose, 8 subjects", "value": "2.9 (1.6-4.2) pmol/L"}, {"measurement": "Estimated half-life for free CNP", "setting": "[2]; 50 μg/kg/week", "value": 108, "unit": "h"}, {"measurement": "Free CNP-38, Mean (SD)", "setting": "[2]; 50 μg/kg/week, 6.5 to 7.5 days after last dose", "value": "7.2 (2.5) pmol/L"}, {"measurement": "Free CNP-38, Median (range)", "setting": "[2]; 50 μg/kg/week, 6.5 to 7.5 days after last dose, 10 subjects", "value": "6.5 (4-16.9) pmol/L"}, {"measurement": "Estimated half-life for free CNP", "setting": "[2]; 100 μg/kg/week", "value": 110, "unit": "h"}, {"measurement": "Free CNP-38, Mean (SD)", "setting": "[2]; 100 μg/kg/week, 6.5 to 7.5 days after last dose", "value": "14 (4.2) pmol/L"}, {"measurement": "Free CNP-38, Median (range)", "setting": "[2]; 100 μg/kg/week, 6.5 to 7.5 days after last dose, 6 subjects", "value": "13.8 (9.4-23) pmol/L"}, {"measurement": "Free CNP-38, Median (range)", "setting": "[2]; 150 μg/kg/week, simulated with a population PK model", "value": "22.3 (19.7-25) pmol/L"}, {"measurement": "exposure across dosing cohorts", "setting": "[2]; 6, 20, 50 and 100 μg/kg", "value": "dose related increase in exposure"}, {"measurement": "Predicted median free CNP Cmax, Median (9-95th percentile)", "setting": "[2]; BW 10 kg, 6 μg/kg/week", "value": "2.9 (1.6-5.0) pg/ml"}, {"measurement": "Predicted median free CNP Cmax, Median (9-95th percentile)", "setting": "[2]; BW 10 kg, 20 μg/kg/week", "value": "10.4 (5.8-18.9) pg/ml"}, {"measurement": "Predicted median free CNP Cmax, Median (9-95th percentile)", "setting": "[2]; BW 10 kg, 50 μg/kg/week", "value": "26.5 (15.2-48.1) pg/ml"}, {"measurement": "Predicted median free CNP Cmax, Median (9-95th percentile)", "setting": "[2]; BW 10 kg, 100 μg/kg/week", "value": "53.1 (30.9-96.4) pg/ml"}, {"measurement": "Predicted median free CNP Cmax, Median (9-95th percentile)", "setting": "[2]; BW 35 kg, 6 μg/kg/week", "value": "1.8 (1.1-3.3) pg/ml"}, {"measurement": "Predicted median free CNP Cmax, Median (9-95th percentile)", "setting": "[2]; BW 35 kg, 20 μg/kg/week", "value": "6.6 (3.8-12.6) pg/ml"}, {"measurement": "Predicted median free CNP Cmax, Median (9-95th percentile)", "setting": "[2]; BW 35 kg, 50 μg/kg/week", "value": "18.3 (10.3-31.5) pg/ml"}, {"measurement": "Predicted median free CNP Cmax, Median (9-95th percentile)", "setting": "[2]; BW 35 kg, 100 μg/kg/week", "value": "36.6 (20.2-65.9) pg/ml"}, {"measurement": "Preliminary mean free CNP level", "setting": "[2]; Cohort 1, 6 μg/kg, WEEK 0, 0.96 days post 1st dose", "value": 1.86, "unit": "pmol/L"}, {"measurement": "Preliminary mean free CNP level", "setting": "[2]; Cohort 1, 6 μg/kg, WEEK 4, 27.98 days, all observations below LLOQ, set to LLOQ ([…])", "value": 1.38, "unit": "pmol/L"}, {"measurement": "Preliminary mean free CNP level", "setting": "[2]; Cohort 1, 6 μg/kg, WEEK 8, 55.97 days", "value": 1.68, "unit": "pmol/L"}, {"measurement": "Preliminary mean free CNP level", "setting": "[2]; Cohort 1, 6 μg/kg, WEEK 12, 79.02 days", "value": 1.85, "unit": "pmol/L"}, {"measurement": "Preliminary mean free CNP level", "setting": "[2]; Cohort 1, 6 μg/kg, WEEK 26, 181.99 days", "value": 1.48, "unit": "pmol/L"}, {"measurement": "Preliminary mean free CNP level", "setting": "[2]; Cohort 1, 6 μg/kg, WEEK 39, 271.94 days", "value": 2.02, "unit": "pmol/L"}, {"measurement": "Preliminary mean free CNP level", "setting": "[2]; Cohort 1, 6 μg/kg, WEEK 52, 363.90 days", "value": 1.58, "unit": "pmol/L"}, {"measurement": "Preliminary mean free CNP level", "setting": "[2]; Cohort 2, 20 μg/kg, WEEK 0, 1.01 days", "value": 3.49, "unit": "pmol/L"}, {"measurement": "Preliminary mean free CNP level", "setting": "[2]; Cohort 2, 20 μg/kg, WEEK 4, 27.94 days", "value": 3.27, "unit": "pmol/L"}, {"measurement": "Preliminary mean free CNP level", "setting": "[2]; Cohort 2, 20 μg/kg, WEEK 8, 56.27 days", "value": 3.79, "unit": "pmol/L"}, {"measurement": "Preliminary mean free CNP level", "setting": "[2]; Cohort 2, 20 μg/kg, WEEK 12, 84.00 days", "value": 3.84, "unit": "pmol/L"}, {"measurement": "Preliminary mean free CNP level", "setting": "[2]; Cohort 2, 20 μg/kg, WEEK 26, 182.00 days", "value": 2.77, "unit": "pmol/L"}, {"measurement": "Preliminary mean free CNP level", "setting": "[2]; Cohort 2, 20 μg/kg, WEEK 39, 273.47 days", "value": 5.19, "unit": "pmol/L"}, {"measurement": "Preliminary mean free CNP level", "setting": "[2]; Cohort 3, 50 μg/kg, WEEK 0, 1.00 days", "value": 10.58, "unit": "pmol/L"}, {"measurement": "Preliminary mean free CNP level", "setting": "[2]; Cohort 3, 50 μg/kg, WEEK 4, 27.99 days", "value": 7.29, "unit": "pmol/L"}, {"measurement": "Preliminary mean free CNP level", "setting": "[2]; Cohort 3, 50 μg/kg, WEEK 8, 56.00 days", "value": 9.24, "unit": "pmol/L"}, {"measurement": "Preliminary mean free CNP level", "setting": "[2]; Cohort 3, 50 μg/kg, WEEK 12, 83.91 days", "value": 7.62, "unit": "pmol/L"}, {"measurement": "Preliminary mean free CNP level", "setting": "[2]; Cohort 4, 100 μg/kg, WEEK 0, 0.99 days", "value": 15.29, "unit": "pmol/L"}, {"measurement": "half-life for free CNP", "setting": "[2]; population PK model, weekly s.c. dosing", "value": "~ 110 hours"}, {"measurement": "exposure to free CNP", "setting": "[2]; weekly s.c. dosing", "value": "Sustained exposure to free CNP was observed"}]}
